Reference: article PMC10204870, “Analysis of aptamer-target binding and molecular mechanisms by thermofluorimetric analysis and molecular dynamics simulation”

Target: T1, alpha-fetoprotein (AFP) (Homo sapiens, UniProt P02771 19-609)
T1 sequence: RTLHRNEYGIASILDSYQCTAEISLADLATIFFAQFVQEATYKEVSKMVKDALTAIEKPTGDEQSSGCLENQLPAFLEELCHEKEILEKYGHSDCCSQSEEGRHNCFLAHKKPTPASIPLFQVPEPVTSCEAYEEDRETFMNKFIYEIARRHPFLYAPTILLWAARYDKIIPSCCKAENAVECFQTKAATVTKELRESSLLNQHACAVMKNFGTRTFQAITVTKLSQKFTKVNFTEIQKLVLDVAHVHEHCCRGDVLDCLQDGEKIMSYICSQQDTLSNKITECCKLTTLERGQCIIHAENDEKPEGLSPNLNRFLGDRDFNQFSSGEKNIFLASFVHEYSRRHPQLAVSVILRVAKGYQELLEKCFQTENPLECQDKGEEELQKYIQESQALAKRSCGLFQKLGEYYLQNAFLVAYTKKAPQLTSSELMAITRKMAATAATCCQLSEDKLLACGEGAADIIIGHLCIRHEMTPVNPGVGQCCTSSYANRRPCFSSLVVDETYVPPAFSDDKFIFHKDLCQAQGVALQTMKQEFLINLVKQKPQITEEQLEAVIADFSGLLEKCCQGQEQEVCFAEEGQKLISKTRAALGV
Assay: thermofluorimetric analysis (EvaGreen melting curves); 1.25-80 nM and 1-5 nM aptamer; HEPES buffer with Na+, K+, Mg2+, Ca2+; 20 mM HEPES-Na, 120 mM NaCl, 4 mM KCl, 2 mM MgCl2, 1 mM CaCl2, pH 7.35 (aptamer diluent); 30 min at room temperature, then melt 4-80 C with EvaGreen; AFP stock
Details: protein: recombinant; label: EvaGreen dye (non-covalent)

B1: AP273 (ssDNA)
DNA: GTGACGCTCCTAACGCTGACTCAGGTGCAGTTCTCGACTCGGTCTTGATGTGGGTCCTGTCCGTCCGAACCAATC
binding result: binds
